Experiments:
vitronectin [1] = molecular target: T1, vitronectin (UniProt P04004 20-478); experiment: [^125I]-IGF-I bound to VN-coated wells (300 ng/well) with 5 ng IGFBP; IGFBP:VN binding read through labelled IGF-I
T1 construct: also called VN

vitronectin [2] = molecular target: T1, vitronectin; experiment: [^125I]-IGF-I bound to VN-coated wells with 2 ng of the non-glycosylated IGFBP-3 mutant; IGFBP:VN binding read through labelled IGF-I

T1 sequence (P04004 20-478 limits assumed): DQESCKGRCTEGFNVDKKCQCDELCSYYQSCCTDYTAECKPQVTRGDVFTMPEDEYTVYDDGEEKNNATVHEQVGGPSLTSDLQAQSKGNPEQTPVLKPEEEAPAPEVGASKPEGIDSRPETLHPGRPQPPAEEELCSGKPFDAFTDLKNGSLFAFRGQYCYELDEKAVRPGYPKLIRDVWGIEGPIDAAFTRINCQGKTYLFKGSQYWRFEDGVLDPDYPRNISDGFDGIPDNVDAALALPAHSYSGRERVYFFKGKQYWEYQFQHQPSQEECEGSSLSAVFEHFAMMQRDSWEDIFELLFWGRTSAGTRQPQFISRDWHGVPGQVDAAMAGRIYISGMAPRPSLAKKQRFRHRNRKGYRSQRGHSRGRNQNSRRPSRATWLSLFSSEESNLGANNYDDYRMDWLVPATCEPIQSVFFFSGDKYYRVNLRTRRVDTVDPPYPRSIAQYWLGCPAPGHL

Row | fold increase in binding of labelled IGF-I to VN-coated wells against wells without IGFBP (vitronectin [1]) | fold increase in binding of labelled IGF-I to VN-coated wells (vitronectin [2]) | Binder
1 | ~2.8 fold | – | recombinant IGFBP-2 produced in mammalian cells (other, UniProt P18065 36-325, looked up) AEVLFRCPPCTPERLAACGPPPVAPPAAVAAVAGGARMPCAELVREPGCGCCSVCARLEGEACGVYTPRCGQGLRCYPHPGSELPLQALVMGEGTCEKRRDAEYGASPEQVADNGDDHSEGGLVENHVDSTMNMLGGGGSAGRKPLKSGMKELAVFREKVTEQHRQMGKGGKHHLGLEEPKKLRPPPARTPCQQELDQVLERISTMRLPDERGPLEHLYSLHIPNCDKHGLYNLKQCKMSLNGQRGECWCVNPNTGKLIQGAPTIRGDPECHLFYNEQQEARGVHTQRMQ
2 | ~3.8 fold | – | recombinant IGFBP-4 produced in mammalian cells (other, UniProt P22692 22-258, looked up) DEAIHCPPCSEEKLARCRPPVGCEELVREPGCGCCATCALGLGMPCGVYTPRCGSGLRCYPPRGVEKPLHTLMHGQGVCMELAEIEAIQESLQPSDKDEGDHPNNSFSPCSAHDRRCLQKHFAKIRDRSTSGGKMKVNGAPREDARPVPQGSCQSELHRALERLAASQSRTHEDLYIIPIPNCDRNGNFHPKQCHPALDGQRGKCWCVDRKTGVKLPGGLEPKGELDCHQLADSFRE
3 | – | 20 fold | IGFBP-3 glycosylation mutant (Non-gly IGFBP-3) (other, UniProt P17936 28-291, looked up, non-glycosylated (glycosylation sites mutated), they probably count on mature IGFBP-3; also called non-glycosylated IGFBP-3 mutant; mutant IGFBP-3) GASSAGLGPVVRCEPCDARALAQCAPPPAVCAELVREPGCGCCLTCALSEGQPCGIYTERCGSGLRCQPSPDEARPLQALLDGRGLCVAASAVSRLRAYLLPAPPAPGAASESEEDRSAGSVESPSVSSTHRVSDPKFHPLHSKIIIIKKGHAKDSQRYKVDYESQSTDTQAFSSESKRETEYGPCRREMEDTLNHLKFLNVLSPRGVHIPNCDKKGFYKKKQCRPSKGRKRGFCWCVDKYGQPLPGYTTKGKEDVHCYSMQSK

Reference: patent US7785835 (QUEENSLAND UNIVERSITY OF TECHNOLOGY, dated 2010)
